Experimental data reported in publication PMC12375108.

Target: GST-tagged T. marianensis hinT H100N (Thermaerobacter marianensis)
Assay: BLI; GST-hinT (90 nM) immobilised on anti-GST biosensors; sucA-AMP 500 to 7.81 nM, unmodified sucA at 500 nM; 10 mM Tris pH 8, 150 mM NaCl, 0.1% Triton X-100; KD from steady-state responses, one site

- Kd: 9 nM
B1: AMPylated sucA (enzyme)
chain: MQNSALKAWLDSSYLSGANQSWIEQLYEDFLTDPDSVDANWRSTFQQLPGTGVKPDQFHSQTREYFRRLAKDASRYSSTISDPDTNVKQVKVLQLINAYRFRGHQHANLDPLGLWQQDKVADLDPSFHDLTEADFQETFNVGSFASGKETMKLGELLEALKQTYCGPIGAEYMHITSTEEKRWIQQRIESGRATFNSEEKKRFLSELTAAEGLERYLGAKFPGAKRFSLEGGDALIPMLKEMIRHAGNSGTREVVLGMAHRGRLNVLVNVLGKKPQDLFDEFAGKHKEHLGTGDVKYHMGFSSDFQTDGGLVHLALAFNPSHLEIVSPVVIGSVRARLDRLDEPSSNKVLPITIHGDAAVTGQGVVQETLNMSKARGYEVGGTVRIVINNQVGFTTSNPLDARSTPYCTDIGKMVQAPIFHVNADDPEAVAFVTRLALDFRNTFKRDVFIDLVCYRRHGHNEADEPSATQPLMYQKIKKHPTPRKIYADKLEQEKVATLEDATEMVNLYRDALDAGDCVVAEWRPMNMHSFTWSPYLNHEWDEEYPNKVEMKRLQELAKRISTVPEAVEMQSRVAKIYGDRQAMAAGEKLFDWGGAENLAYATLVDEGIPVRLSGEDSGRGTFFHRHAVIHNQSNGSTYTPLQHIHNGQGAFRVWDSVLSEEAVLAFEYGYATAEPRTLTIWEAQFGDFANGAQVVIDQFISSGEQKWGRMCGLVMLLPHGYEGQGPEHSSARLERYLQLCAEQNMQVCVPSTPAQVYHMLRRQALRGMRRPLVVMSPKSLLRHPLAVSSLEELANGTFLPAIGEIDELDPKGVKRVVMCSGKVYYDLLEQRRKNNQHDVAIVRIEQLYPFPHKAMQEVLQQFAHVKDFVWCQEEPLNQGAWYCSQHHFREVIPFGASLRYAGRPASASPAVGYMSVHQKQQQDLVNDALNVE
modifications: multiple AMPylation sites, residues not given
